Measured values published in patent US12102667B2, “Polypeptides and antibiotics against gram-negative bacterium comprising the same” (priority 2021, dated 2024).

How the values were obtained:
[1] = system: K. acrogenes; assay: MIC, broth microdilution; type: cell-based, Klebsiella aerogenes
Description: (§1) The MIC of the LNT113 or antibiotic was determined using modification of the broth microdilution method in a 96-well, round bottom, microplate according to the previously described method (Heselpoth et al., 2019). Exponentially grown cells were diluted to a concentration of 10^6 CFU/ml in a CAA medium, and then cultured with recombinant LNT113 (1-64 μg/ml) or antibiotics at 35° C. for 20 hours. […] The MBC was defined as the lowest concentration of the antibacterial agent with no growth on a plate. All analyses were performed in duplicate.

[2] = system: A. baumannii; assay: MIC, broth microdilution; type: cell-based, Acinetobacter baumannii
Description: as §1

[3] = system: K. pneumoniae; assay: Antibacterial activity analysis (colony count after 2 hours in buffer); type: cell-based, Klebsiella pneumoniae; details: 2 μM
Description: (§2) The antibacterial activity of the purified protein was tested for E. coli and various K. pneumoniae strains. The bacterium were grown to an exponential phase (OD600=0.5) and harvested by centrifugation at 12,000×g for 3 minutes. Then, the pellets were washed with reaction buffer solution (20 mM Tris-HCl, pH 7.5) and diluted to about 10^6 cells/ml in the buffer solution. Then, 100 μl bacterial suspension was mixed with the purified endolysin of 100 μl in the reaction buffer solution and incubated at 37° C. for 2 hours. Finally, the mixture was diluted with PBS and loaded on an LB plate. After culturing at 37° C. overnight, the bacterial colonies were counted. All the analysis was performed in triplicate.
(§3) The same reaction was performed for the selected subject bacterium in 20 mM HEPES-NaOH, 150 mM NaCl [pH 7.4], and the unique antibacterial activity of Tris and dependence of endolysin for turgor pressure were excluded (FIG. 10a and FIG. 10b). […] The bacterial cells grown geometrically were cultured with 2 μM endolysin in low tonicity buffers (20 mM Tris-HCl, pH 7.5 or 20 mM HEPES, pH 7.5) or high tonicity buffers (buffer solution comprising 150 mM NaCl) at 37° C. for 2 hours. The cells treated with storage buffer solution (20 mM Tris-HCl, pH 7.5, 150 mM NaCl buffer solution (pH 7.5)) were used as a negative control group. The dotted line represents the detection limit (1 Log CFU/ml).

[4] = system: E. coli; assay: as above; type: cell-based, Escherichia coli
Description: as §2, §3
For this, endolysin EC340 at a concentration of 2 μM and each test bacterium were added to reaction buffer (20 mM Tris-Cl, pH 7.5) so that the final concentration was to be 200 μl, and were left at 37° C. for 2 hours. After 2 hours, the number of colonies of Acinetobacter baumannii, Pseudomonas aeruginosa and Escherichia coli was confirmed, and the result was shown in FIG. 3.

B1: LNT113: fusion polypeptide: Cecropin A, (GGGGS)3 linker, mutant endolysin mtEC340; recombinant form with C-terminal His tag (protein)
chain: MKWKLFKKIEKVGQNIRDGIIKAGPAVAVVGQATQIAKGGGGSGGGGSGGGGSVSRNISNNGIKFTAAFEGFRGTAYRATPNEKYLTIGYGSYGPHVEPGKTITPGQGLLLLNRDMAKAVAAVDAVAHHSLTQSQFDAVCDLVYNAGAGVIAAATGTGKALRSGDVATLRAKLALFINQNGKPLLGLRRRTAGRLALFDGKPWQEAEAIGRAVKG
modifications: synthetic_Met+Cecropin A+GGGGS3 linker+mtEC340
notes: fusion polypeptide: Cecropin A, (GGGGS)3 linker, mutant endolysin mtEC340; recombinant form with C-terminal His tag
B1 was tested, and the MIC ([1]; K. acrogenes CCARM 16006) was 16 µg/mL, the MIC ([1]; K. acrogenes CCARM 16008) was 8 µg/mL and the MIC ([1]; K. acrogenes CCARM 16010) was 8 µg/mL. For the same molecule, the MIC ([2]; A. baumannii ATCC (first ATCC line, number not given)) was 8 µg/mL, the MIC ([2]; A. baumannii ATCC (second ATCC line, number not given)) was 16 µg/mL and the MIC ([2]; A. baumannii CCARM) was 8 µg/mL. The MIC ([2]; A. baumannii F4) was 4 µg/mL, the MIC ([2]; A. baumannii F65) was 8 µg/mL and the MIC ([2]; A. baumannii F66) was 8 µg/mL. For the same molecule, the MIC ([2]; A. baumannii F67) was 8 µg/mL, the “antibacterial activity (number of bacterium)” value ([3]; K. pneumoniae ATCC700603, KCTC2208, CCARM10143, F85, 2 hours, Tris-HCl pH 7.5) was “more excellent antibacterial activity” and the “effect of adding NaCl on antibacterial activity” value ([3]; K. pneumoniae KCTC 2208, Tris or Hepes buffer with 150 mM NaCl) was “negative effect of salt presence was significantly reduced”. The “increase in activity compared to mtEC340” value ([3]; K. pneumoniae strains, 2 hours) was ≤ 4 log, the “viable bacterial cells after culturing for 2 hours” value ([3]; all tested K. pneumoniae strains) was “No viable bacterial cells were detected” and the “antibacterial activity (number of bacterium)” value ([4]; E. coli ATCC8739, ATCC25922, CCARM1A746, CCARM1B684, 2 μM, 2 hours, Tris-HCl pH 7.5) was “more excellent antibacterial activity”. The “effect of adding NaCl on antibacterial activity” value ([4]; E. coli ATCC 8739, 2 μM, Tris or Hepes buffer with 150 mM NaCl) was “negative effect of salt presence was significantly reduced”, the “dose and time dependence of antibacterial activity” value ([4]; E. coli ATCC 8739, 0.1-2.7 μM, 0.5 μM over time) was “antibacterial activity according to dose and time” and the “antibacterial activity compared to Cecropin A and/or mtEC340” value ([4]; E. coli ATCC8739, final concentration of 0.5 mM) was “enhanced antibacterial activity”. The “increase in activity compared to mtEC340” value ([4]; E. coli strains, 2 μM, 2 hours) was ≤ 4 log, the “viable bacterial cells after culturing for 2 hours” value ([4]; all tested E. coli strains, 2 μM) was “No viable bacterial cells were detected” and the “amount of bacterial cells after treatment” value ([4]; colistin-resistant E. coli FORC81, 2 μM, 2 hours) was “below the detection limit”.
